Reference: publication PMC10646045, “Multiplexed detection of viral antigen and RNA using nanopore sensing and encoded molecular probes”

Legend:
[1] = biological target: SARS-CoV-2 nucleocapsid protein (SARS-CoV-2, UniProt P0DTC9 1-419); assay: SPR; conditions: protein: commercial
[2] = biological target: SARS-CoV-2 spike protein S1 region (SARS-CoV-2, UniProt P0DTC2 13-685); assay: SPR; conditions: protein: commercial

B1: NBA (ssDNA)
DNA: GCTGGATGTCGCTTACGACAATATTCCTTAGGGGCACCGCTACATTGACACATCCAGC
- Kd [1]: 0.73 nM

B2: SBA (ssDNA)
DNA: CACGCATAACGTCTTGCGGGGCGGCGGGTTGAGAGGATGTCGGGTGGTTATGCGTG
- Kd [2]: 9.86 nM
